Measured values published in patent US20230265167A1, “COMPOSITIONS HAVING NEUROREGENERATIVE APPLICATIONS” (GRIFOLS WORLDWIDE OPERATIONS LIMITED, priority 2020, published 2023).

Test system: SH-SY5Y cells
Experiment: Neurite outgrowth (differentiation) in SH-SY5Y cells, Tubulin Tracker imaging
Assay type: cell-based, human
Procedure: Transferrin is utilized in cell culture and in-vivo to deliver iron as a nutrient to cells. This is typically accomplished through the actions of holo-transferrin (HoloTf) binding to, and endocytosis by, its cognate receptor CD71, the transferrin receptor 1 (TfR1). Transferrin is typically believed to provide cells with iron as a means to promote and sustain metabolic activity. […] Induction of neuronal differentiation was assessed by morphological parameters of neurite formation (a key element typically used as a marker of neuronal differentiation, neuronal health, and function) according to the procedures of Agholme, 2010. J. of Alzheimer's Disease. Vol. 20:1p 069-108; and Dyberg et al., 2017. PNAS Vol 114 (32), E6603-E6612.
Undifferentiated SH-SY5Y cells were seeded into 96 well clear bottom plates in media containing 0.1% FBS. A serum-free base media was utilized as recommended by the supplier for SH-SY5Y cells (Sigma, Cat #94030304-1VL). Twenty-four hours after seeding cells, a 3× stock solution of ApoTf, final concentrations indicated on the x-axis, in serum free base media was added to the cells. ApoTf was obtained and purified from pooled human plasma and dosed at a final concentration of 0.2 mg/mL.
Cells were allowed to differentiate for 6 days. Neurite growth was assessed by imaging and image analysis. […]
After obtaining images, the MetaExpress Neurite Outgrowth analysis module (Molecular Devices) was used to identify cells, cell bodies, and quantify neurites. […] The Outgrowth Fold Change was determined by setting the untreated control cells to a value of 1 with all other treatments shown relative to untreated control.
Undifferentiated SH-SY5Y cells were seeded and treated as described in Example 1. Neurite growth was assessed by imaging and image analysis. […] After obtaining images, the MetaExpress Neurite Outgrowth analysis module (Molecular Devices) was used to identify cell bodies and quantify neurites. […] The Outgrowth Fold Change was determined by setting the untreated control to a value of 1 with all other treatments shown relative to untreated control. […]

B1: N-mut rec ApoTf: Y95F/Y188F Transferrin N-lobe mutant protein, SEQ ID 4, reduced iron-binding capacity (protein)
chain: VPDKTVRWCAVSEHEATKCQSFRDHMKSVIPSDGPSVACVKKASYLDCIRAIAANEADAVTLDAGLVYDAYLAPNNLKPVVAEFYGSKEDPQTFFYAVAVVKKDSGFQMNQLRGKKSCHTGLGRSAGWNIPIGLLYCDLPEPRKPLEKAVANFFSGSCAPCADGTDFPQLCQLCPGCGCSTLNQYFGFSGAFKCLKDGAGDVAFVKHSTIFENLANKADRDQYELLCLDNTRKPVDEYKDCHLAQVPSHTVVARSMGGKEDLIWELLNQAQEHFGKDKSKEFQLFSSPHGKDLLFKDSAHGFLKVPPRMDAKMYLGYEYVTAIRNLREGTCPEAPTDECKPVKWCALSHHERLKCDEWSVNSVGKIECVSAETTEDCIAKIMNGEADAMSLDGGFVYIAGKCGLVPVLAENYNKSDNCEDTPEAGYFAVAVVKKSASDLTWDNLKGKKSCHTAVGRTAGWNIPMGLLYNKINHCRFDEFFSEGCAPGSKKDSSLCKLCMGSGLNLCEPNNKEGYYGYTGAFRCLVEKGDVAFVKHQTVPQNTGGKNPDPWAKNLNEKDYELLCLDGTRKPVEEYANCHLARAPNHAVVTRKDKEACVHKILRQQQHLFGSNVTDCSGNFCLFRSETKDLLFRDDTVCLAKLHDRNTYEKYLGEEYVKAVGNLRKCSTSSLLEACTFRRP
modifications: Y95F/Y188F mutant
FIG. 3B, proteins at 0.2 mg/mL
  neurogenesis (neurite outgrowth) of SH-SY5Y: almost equal to that of ApoTf and rec ApoTf at inducing differentiation

B2: BDNF: brain-derived neurotrophic factor; NGF superfamily; SEQ ID NO: 6 (protein, listed as Homo sapiens)
chain: MFHQVRRVMTILFLTMVISYFGCMKAAPMKEANIRGQGGLAYPGVRTHGTLESVNGPKAGSRGLTSLADTFEHVIEELLDEDQKVRPNEENNKDADLYTSRVMLSSQVPLEPPLLFLLEEYKNYLDAANMSMRVRRHSDPARRGELSVCDSISEWVTAADKKTAVDMSGGTVTVLEKVPVSKGQLKQYFYETKCNPMGYTKEGCRGIDKRHWNSQCRTTQSYVRALTMDSKKRIGWRFIRIDTSCVCTLTIKRGR
FIGS. 7A-7D, BDNF 25 ng/mL, GDNF 1000 ng/mL, CNTF 250 ng/mL, PACAP 200 nM
  differentiation of SH-SY5Y, factor alone: differentiation was not induced

B3: apo-lactoferrin: structural and functional homologue of apo-transferrin, obtained from Athens Research & Technology (protein, UniProt P02788 20-710, looked up)
Lactotransferrin: GRRRSVQWCAVSQPEATKCFQWQRNMRKVRGPPVSCIKRDSPIQCIQAIAENRADAVTLDGGFIYEAGLAPYKLRPVAAEVYGTERQPRTHYYAVAVVKKGGSFQLNELQGLKSCHTGLRRTAGWNVPIGTLRPFLNWTGPPEPIEAAVARFFSASCVPGADKGQFPNLCRLCAGTGENKCAFSSQEPYFSYSGAFKCLRDGAGDVAFIRESTVFEDLSDEAERDEYELLCPDNTRKPVDKFKDCHLARVPSHAVVARSVNGKEDAIWNLLRQAQEKFGKDKSPKFQLFGSPSGQKDLLFKDSAIGFSRVPPRIDSGLYLGSGYFTAIQNLRKSEEEVAARRARVVWCAVGEQELRKCNQWSGLSEGSVTCSSASTTEDCIALVLKGEADAMSLDGGYVYTAGKCGLVPVLAENYKSQQSSDPDPNCVDRPVEGYLAVAVVRRSDTSLTWNSVKGKKSCHTAVDRTAGWNIPMGLLFNQTGSCKFDEYFSQSCAPGSDPRSNLCALCIGDEQGENKCVPNSNERYYGYTGAFRCLAENAGDVAFVKDVTVLQNTDGNNNEAWAKDLKLADFALLCLDGKRKPVTEARSCHLAMAPNHAVVSRMDKVERLKQVLLHQQAKFGRNGSDCPDKFCLFQSETKNLLFNDNTECLARLHGKTTYEKYLGPQYVAGITNLKKCSTSPLLEACEFLRK
modifications: iron-free apo form
notes: structural and functional homologue of apo-transferrin, obtained from Athens Research & Technology
FIG. 4, proteins at 0.2 mg/mL
  neurogenesis / differentiation of SH-SY5Y: induced differentiation
